Data as given in IntAct's records for PubMed 22056770.

B1: Flagellum site-determining protein YlxH (Bacillus subtilis), P40742 (parent)
chain: MQMNRYDQAATLRAKMEKRERVLPMVYSQKAKTLAVISGKGGVGKSNITLNMALALQDKGKKVLLIDLDIGMGNIDILIGNSSSATIIDVLTDRKPLLQSLSVGPKGLRYISGGTGLDVMFQLDQRKWTFFANELSHALSQFDYVLFDMGAGLSKDQLPFILSAEDILIITTPEPTAIMDAYSAVKHLVLTENKLSMKVAVNRCRDQKEGLDAFARLSRTIHMFLDVQVQFAGSVSDDVIVSKAVVEQVPFFIKSPQAKASRSVRILADALFEREETRHKEDKQTFIEKLSSFLMRRA
partner: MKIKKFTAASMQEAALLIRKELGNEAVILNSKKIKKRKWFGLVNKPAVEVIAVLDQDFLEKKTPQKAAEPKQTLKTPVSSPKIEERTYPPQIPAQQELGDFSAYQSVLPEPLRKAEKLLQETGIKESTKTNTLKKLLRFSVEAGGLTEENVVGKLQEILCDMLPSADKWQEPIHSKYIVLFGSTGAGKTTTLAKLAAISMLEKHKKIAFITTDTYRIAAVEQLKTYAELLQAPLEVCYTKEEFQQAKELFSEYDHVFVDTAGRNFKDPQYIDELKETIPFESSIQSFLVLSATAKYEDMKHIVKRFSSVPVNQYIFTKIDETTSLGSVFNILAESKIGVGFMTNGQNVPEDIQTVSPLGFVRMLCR
B2: Flagellar biosynthesis protein FlhF (Bacillus subtilis), Q01960 (parent)
chain: B1 partner
partner: B1 chain

Variants of: B1
Settings: with flhf_bacsu flhF

Variant | effect of a mutation on the interaction
MQMNRYDAAATLRAKMEKRERVLPMVYSQKAKTLAVISGKGGVGKSNITLNMALALQDKGKKVLLIDLDIGMGNIDILIGNSSSATIIDVLTDRKPLLQSLSVGPKGLRYISGGTGLDVMFQLDQRKWTFFANELSHALSQFDYVLFDMGAGLSKDQLPFILSAEDILIITTPEPTAIMDAYSAVKHLVLTENKLSMKVAVNRCRDQKEGLDAFARLSRTIHMFLDVQVQFAGSVSDDVIVSKAVVEQVPFFIKSPQAKASRSVRILADALFEREETRHKEDKQTFIEKLSSFLMRRA [Q8A] | disrupting interaction

Variants of: B2
Settings: with ylxh_bacsu ylxH

Variant | effect of a mutation on the interaction
MKIKKFTAASMQEAALLIRKELGNEAVILNSKKIKKRKWFGLVNKPAVEVIAVLDQDFLEKKTPQKAAEPKQTLKTPVSSPKIEERTYPPQIPAQQELGDFSAYQSVLPEPLRKAEKLLQETGIKESTKTNTLKKLLRFSVEAGGLTEENVVGKLQEILCDMLPSADKWQEPIHSKYIVLFGSTGAGKTTTLAKLAAISMLEKHKKIAFITTDTYAIAAVEQLKTYAELLQAPLEVCYTKEEFQQAKELFSEYDHVFVDTAGRNFKDPQYIDELKETIPFESSIQSFLVLSATAKYEDMKHIVKRFSSVPVNQYIFTKIDETTSLGSVFNILAESKIGVGFMTNGQNVPEDIQTVSPLGFVRMLCR [R216A] | disrupting interaction
